From article PMC9348671, “Structural elucidation of substrate-bound aminoglycoside acetyltransferase (3)-IIIa” (PLoS ONE, 2022)

Target: the molecule itself
Assay: SEC; HiLoad Superdex 200 26/60 in 20 mM Tris pH 7.5, 150 mM NaCl; tag removed

B1: aminoglycoside acetyltransferase (3)-IIIa (enzyme)
chain: MTDLNIPHTHAHLVDAFQALGIRAGQALMLHASVKAVGAVMGGPNVILQALMDALTPDGTLMMYAGWQDIPDFIDSLPDALKAVYLEQHPPFDPATARAVRENSVLAEFLRTWPCVHRSANPEASMVAVGRQAALLTANHALDYGYGVESPLAKLVAIEGYVLMLGAPLDTITLLHHAEYLAKMRHKNVVRYPCPILRDGRKVWVTVEDYDTGDPHDDYSFEQIARDYVAQGGGTRGKVGDADAYLFAAQDLTRFAVQWLESRFGDSASYG
notes: AAC(3)-IIIa from Pseudomonas aeruginosa, GenBank CAA39184.1; gene synthesized with codons optimized for E. coli, in pET15b between NdeI and BamHI; Hexahistidine tag removed by thrombin; residues of the thrombin site and vector may be left at the N-terminus; Crystals held CoASH and an aminoglycoside (gentamicin, sisomicin or neomycin); also called AAC(3)-IIIa; iso^A; source: LOBSTR E. coli, …
  stoichiometry N: 2
